# Measurements: US20200188499A1
# Legend:
# [1] = target: VARITECT (human polyclonal antibodies directed against Varicella Zoster antigens); assay: inhibition ELISA with VARITECT; gE content divided by titer of the standard; lyophilised gE
# [2] = target: VARITECT (human polyclonal antibodies directed against Varicella Zoster antigens); assay: inhibition ELISA with VARITECT; gE content by ELISA divided by Lowry protein; co-lyophilised gE/AS01
# [3] = target: VARITECT (human polyclonal antibodies directed against Varicella Zoster antigens); assay: inhibition ELISA with VARITECT; gE content by ELISA divided by Lowry protein; gE before lyophilisation
# [4] = target: VARITECT (human polyclonal antibodies directed against Varicella Zoster antigens); assay: inhibition ELISA with VARITECT; gE content divided by titer of the standard; co-lyophilised gE/AS01
# [5] = target: VARITECT (human polyclonal antibodies directed against Varicella Zoster antigens); assay: inhibition ELISA with VARITECT; gE content by ELISA divided by Lowry protein; control VZV gE vaccine
# [6] = target: VARITECT (human polyclonal antibodies directed against Varicella Zoster antigens); assay: inhibition ELISA with VARITECT; gE content by ELISA divided by Lowry protein; sample gE/AS01 before lyophilisation
# [7] = target: VARITECT (human polyclonal antibodies directed against Varicella Zoster antigens); assay: inhibition ELISA with VARITECT; gE content divided by titer of the standard; control VZV gE vaccine
# [8] = target: VARITECT (human polyclonal antibodies directed against Varicella Zoster antigens); assay: inhibition ELISA with VARITECT; gE content by ELISA divided by Lowry protein; lyophilised gE
substance,measurement,setting,value
VZV gE antigen (truncated form of the Varicella Zoster Virus glycoprotein E) (from UniProt P09259 31-546),Potency,[1],0.98
same,Antigenic activity (gE/prot),[2],0.99
same,Antigenic activity (gE/prot),[3],1.05
same,Potency,[4],1.02
same,Antigenic activity (gE/prot),[5],1.15
same,Antigenic activity (gE/prot),[6],0.96
same,Potency,[7],0.92
same,Antigenic activity (gE/prot),[8],1.01
